The source of these data is the RNAGym collection of RNA variant scans (doi:10.7554/elife.80360).

B1: CPEB3 Ribozyme (parent)
chain: GGGGGCCACAGCAGAAGCGUUCACGUCGCGGCCCCUGUCAGAUUCUGGUGAAUCUGCGAAUUCUGCUGU

The variants in this series derive from B1. Briefly: self-cleavage, relative activity (ratio to wild type); higher = more cleavage; co-transcriptional.
Consider GGGGGCCACAGCAGAAGCGUUCACGUCGCGGCCCCUGUCAGAUUCUGGUGCAUCUGCGAAUUCUGCGGU [A51C U67G], for which the self-cleavage came out at 0.993. As for GGGGGCCACAGCAGAAGCGUUCACGUCGCGGCCCCUGUCAGAUUCUGGUGCAUCUGCGAAUUCUGCAGU [A51C U67A], the figure is 0.961; as for GGGGGCCACAGCAGAAGCGUUCACGUCGCGGCCCCUGUCAGAUUCUGGUGGACCUGCGAAUUCUGCUGU [A51G U53C], 0.899.

As for GGGGGCCACAGCAGAAGCGUUCACGUCGCGGCCCCUGUCAGAUUCUGGUGGAGCUGCGAAUUCUGCUGU [A51G U53G], the self-cleavage stood at 0.839.

Regarding GGGGGCCACAGCAGAAGCGUUCACGUCGCGGCCCCUGUCAGAUUCUGGUGGAACUGCGAAUUCUGCUGU [A51G U53A], the self-cleavage turned out to be 0.981.

For the variant GGGGGCCACAGCAGAAGCGUUCACGUCGCGGCCCCUGUCAGAUUCUGGUGGAUGUGCGAAUUCUGCUGU [A51G C54G], the self-cleavage stood at 0.858.

As to GGGGGCCACAGCAGAAGCGUUCACGUCGCGGCCCCUGUCAGAUUCUGGUGGAUAUGCGAAUUCUGCUGU [A51G C54A], the self-cleavage came out at 0.854. On to GGGGGCCACAGCAGAAGCGUUCACGUCGCGGCCCCUGUCAGAUUCUGGUGGAUUUGCGAAUUCUGCUGU [A51G C54U], for which the self-cleavage came out at 0.986. Turning to GGGGGCCACAGCAGAAGCGUUCACGUCGCGGCCCCUGUCAGAUUCUGGUGGAUCUGCGAAUUCUGCUAU [A51G G68A], the self-cleavage came out at 1.01. Regarding GGGGGCCACAGCAGAAGCGUUCACGUCGCGGCCCCUGUCAGAUUCUGGUGGAUCUGCGAAUUCUGCUCU [A51G G68C], the self-cleavage was 0.911. The figure for GGGGGCCACAGCAGAAGCGUUCACGUCGCGGCCCCUGUCAGAUUCUGGUGGAUCUGCGAAUUCUGCUUU [A51G G68U] is 1.03; for GGGGGCCACAGCAGAAGCGUUCACGUCGCGGCCCCUGUCAGAUUCUGGUGGAUCUGCGAAUUCUUCUGU [A51G G65U] it is 0.872; for GGGGGCCACAGCAGAAGCGUUCACGUCGCGGCCCCUGUCAGAUUCUGGUGGAUCUGCGAAUUCUCCUGU [A51G G65C] it is 0.715. Take GGGGGCCACAGCAGAAGCGUUCACGUCGCGGCCCCUGUCAGAUUCUGGUGGAUCUGCGAAUUCUACUGU [A51G G65A]: the self-cleavage is 0.948. As for GGGGGCCACAGCAGAAGCGUUCACGUCGCGGCCCCUGUCAGAUUCUGGUGGAUCUGCGUAUUCUGCUGU [A51G A59U], the self-cleavage came out at 0.859. GGGGGCCACAGCAGAAGCGUUCACGUCGCGGCCCCUGUCAGAUUCUGGUGGAUCUGUGAAUUCUGCUGU [A51G C57U]: the self-cleavage stood at 0.321. Regarding GGGGGCCACAGCAGAAGCGUUCACGUCGCGGCCCCUGUCAGAUUCUGGUGGAUCUGAGAAUUCUGCUGU [A51G C57A], the self-cleavage was found to be 0.399. In the case of GGGGGCCACAGCAGAAGCGUUCACGUCGCGGCCCCUGUCAGAUUCUGGUGGAUCUGCGAAUUCUGCUGU [A51G], the self-cleavage is 0.994. The figure for GGGGGCCACAGCAGAAGCGUUCACGUCGCGGCCCCUGUCAGAUUCUGGUGGAUCGGCGAAUUCUGCUGU [A51G U55G] is 0.63.

As for GGGGGCCACAGCAGAAGCGUUCACGUCGCGGCCCCUGUCAGAUUCUGGUGGAUCCGCGAAUUCUGCUGU [A51G U55C], the self-cleavage stood at 0.839.

As to GGGGGCCACAGCAGAAGCGUUCACGUCGCGGCCCCUGUCAGAUUCUGGUGCAUCUGCGAAUACUGCUGU [A51C U62A], the self-cleavage stood at 0.901.

In the case of GGGGGCCACAGCAGAAGCGUUCACGUCGCGGCCCCUGUCAGAUUCUGGUGCAUCUGCGAAUCCUGCUGU [A51C U62C], the self-cleavage amounted to 0.76. As for GGGGGCCACAGCAGAAGCGUUCACGUCGCGGCCCCUGUCAGAUUCUGGUGGAUCUUCGAAUUCUGCUGU [A51G G56U], the figure is 0.95.

For GGGGGCCACAGCAGAAGCGUUCACGUCGCGGCCCCUGUCAGAUUCUGGUGGAUCUGCGAAUUUUGCUGU [A51G C63U], the self-cleavage was 0.96. Regarding GGGGGCCACAGCAGAAGCGUUCACGUCGCGGCCCCUGUCAGAUUCUGGUGGAUCUGCGAAUUAUGCUGU [A51G C63A], the self-cleavage amounted to 0.884. For GGGGGCCACAGCAGAAGCGUUCACGUCGCGGCCCCUGUCAGAUUCUGGUGGAUCUGCGAAUUGUGCUGU [A51G C63G], the self-cleavage worked out at 0.772. As for GGGGGCCACAGCAGAAGCGUUCACGUCGCGGCCCCUGUCAGAUUCUGGUGCAUCUGCGAAUUCAGCUGU [A51C U64A], the figure is 0.866; as for GGGGGCCACAGCAGAAGCGUUCACGUCGCGGCCCCUGUCAGAUUCUGGUGCAUCUGCGAAUUCCGCUGU [A51C U64C], 0.787. As for GGGGGCCACAGCAGAAGCGUUCACGUCGCGGCCCCUGUCAGAUUCUGGUGGAUCUGCGAUUUCUGCUGU [A51G A60U], the figure is 0.589; as for GGGGGCCACAGCAGAAGCGUUCACGUCGCGGCCCCUGUCAGAUUCUGGUGGAUCUGCGAGUUCUGCUGU [A51G A60G], 0.939. The figure for GGGGGCCACAGCAGAAGCGUUCACGUCGCGGCCCCUGUCAGAUUCUGGUGGCUCUGCGAAUUCUGCUGU [A51G A52C] is 0.94. In the case of GGGGGCCACAGCAGAAGCGUUCACGUCGCGGCCCCUGUCAGAUUCUGGUGGUUCUGCGAAUUCUGCUGU [A51G A52U], the self-cleavage worked out at 0.902. GGGGGCCACAGCAGAAGCGUUCACGUCGCGGCCCCUGUCAGAUUCUGGUGGAUCUGCGAAAUCUGCUGU [A51G U61A]: the self-cleavage amounted to 0.833. The figure for GGGGGCCACAGCAGAAGCGUUCACGUCGCGGCCCCUGUCAGAUUCUGGUGGAUCUGCGAAGUCUGCUGU [A51G U61G] is 0.85; for GGGGGCCACAGCAGAAGCGUUCACGUCGCGGCCCCUGUCAGAUUCUGGUGCAUCUGCGAAUUCUGCUGC [A51C U69C] it is 1.08; for GGGGGCCACAGCAGAAGCGUUCACGUCGCGGCCCCUGUCAGAUUCUGGUGCAUCUGCGAAUUCUGCUGA [A51C U69A] it is 1.05. On to GGGGGCCACAGCAGAAGCGUUCACGUCGCGGCCCCUGUCAGAUUCUGGUGCAUCUGCGAAUUCUGCUGG [A51C U69G], for which the self-cleavage came out at 1.01. In the case of GGGGGCCACAGCAGAAGCGUUCACGUCGCGGCCCCUGUCAGAUUCUGGUGGAUCUGCUAAUUCUGCUGU [A51G G58U], the self-cleavage is 1.01. As for GGGGGCCACAGCAGAAGCGUUCACGUCGCGGCCCCUGUCAGAUUCUGGUGGAUCUGCCAAUUCUGCUGU [A51G G58C], the figure is 1.01.
